These results are taken from PMC2659877.

By Kd is commonly meant the constant that tells how readily two partners part at equilibrium.

The target of assay [1] is β-spectrin consisting of residues 1898–2083 (Spβ) (UniProt P11277). The assay can be described thus: ITC. (ITC needs no label: the signal is the heat of the interaction.)
Assay [2] addresses β-spectrin (Homo sapiens) (UniProt P11277). The assay can be described thus: ITC. As to conditions: cited from earlier work.
For assay [3] the target is unchanged. The experiment in a line: ITC. As to conditions: cited from earlier work. This is another data set of the same source.
For assay [4] the target is unchanged. The assay can be described thus: ITC. As to conditions: cited from earlier work. This is another data set of the same source.
Assay [5] shares this target. The experiment in a line: ITC. As to conditions: cited from earlier work. This is another data set of the same source.
Assay [6] addresses spin labeled SpαΔ 49R1 (UniProt P02549). The assay can be described thus: spin label EPR titration.

“cysteine-less fragment of the first 368 residues of α-spectrin (from UniProt P02549 1-368) (domain or fragment)” gave a Kd in assay [1] of 0.9 µM.

In turn, “spin labeled SpαΔ 20R1 (from UniProt P02549 1-368) (domain or fragment)” registered a dissociation constant Kd in assay [1] of 1.5 µM.

Regarding “spin labeled SpαΔ 45R1 (from UniProt P02549 1-368) (domain or fragment)”, the Kd in assay [1] turned out to be 2.9 µM.

In the case of “spin labeled SpαΔ 46R1 (from UniProt P02549 1-368) (domain or fragment)”, in assay [1], the Kd was determined as 5.9 µM.

With “spin labeled SpαΔ 48R1 (from UniProt P02549 1-368) (domain or fragment)”, the Kd in assay [1] is 3.1 µM.

Consider “spin labeled SpαΔ 49R1 (from UniProt P02549 1-368) (domain or fragment)”, for which the Kd in assay [1] was greater than 30 µM.

Regarding “spin labeled SpαΔ 53R1 (from UniProt P02549 1-368) (domain or fragment)”, in assay [1], the Kd amounted to 3.3 µM.

Take α-spectrin (from UniProt P02549): the Kd in assay [2] is 0.4 µM; in assay [3], greater than 200 µM; in assay [4] it was 0.5 µM; in assay [5] it was 14 µM.

“β-spectrin consisting of residues 1898–2083 (Spβ) (from UniProt P11277 1898-2083) (domain or fragment)”: the dissociation constant (Kd) in assay [6] stood at 98 µM.
